In experiment [1] the target is IpaB^1.226 (Shigella flexneri). Put plainly: cross-linking.
The target of experiment [2] is IpgC (Shigella flexneri) (UniProt P0A2U4). Put plainly: ITC. On the technique in general: In ITC the heat of successive injections is recorded.
In experiment [3] the target is IpaB^28.226 (Shigella flexneri). Briefly: cross-linking.
Experiment [4] concerns the target FM-IpaB^C28.226 (Shigella flexneri). Put plainly: fluorescence polarisation. Background: Polarisation of emitted light reports the rotation of a fluorescent probe.
The target in experiment [5] is FM-IpaB^N1.226 (Shigella flexneri). Put plainly: fluorescence polarisation.
Experiment [6] concerns the target FM-IpaB^N28.226 (Shigella flexneri). Put plainly: fluorescence polarisation.
For experiment [7], the target named is FM-IpaB^C1.226 (Shigella flexneri). Put plainly: fluorescence polarisation.

In experiment [1], IpaB^1.226 (domain or fragment) returned a stoichiometry N of 2. In experiment [2], this substance yielded a dissociation constant Kd of 208 nM, a dH of 8.68 kcal/mol and a stoichiometry N of 1.03.

With IpaB^28.226 (domain or fragment), the stoichiometry N in experiment [3] amounted to 2. Moreover, in experiment [2], the Kd was 2960 nM, the dH is 3.55 kcal/mol and the stoichiometry N was 0.88.

On to “IpgC (from UniProt P0A2U4 1-155) (natural protein)”, for which the Kd in experiment [4] came out at 501 nM; in experiment [5], 199 nM; in experiment [6] it was 411 nM; in experiment [7], 59.5 nM.

Usually stoichiometry N stands for a count of units in the complex or per binding partner. A word on the Kd: it is the free concentration of one partner at which half of the binding sites on the other are occupied at equilibrium, for simple one-to-one binding.

The values are drawn from PMC3903306.
